Source: article PMC9170038, “Crowdsourced RNA design discovers diverse, reversible, efficient, self-contained molecular switches”

B1: Eterna 7693586 (Exclusion - Tryptophan B) (ssRNA)
RNA: GGAUAGGACACGGCCGCCACUACCGAGGAUACUCGAAACAUUUCCUCAGAUGAGUGAUGUUCAUCUAGGACCGGGUGUCCUAUCG
B2: Eterna 7692524 (Same State - Theophylline A) (ssRNA)
RNA: UGAUAAUGCAGUGAUGUUGCUAGAAACGAUACCAGUUAAGAAAAGAACCCUUGGCAGCGUAAAGUGCGCUCUAAUGAGUGUGCUU
B3: Eterna 6387857 (Small Loop Same State NG 3) (ssRNA)
RNA: AAUCUUUUUAUGGGAUUACAAUAUGAGGAUAUCAUUCAUUUAUACAUGAGGAUCACCCAUGUUACUGAGAAGGCAUAUAUAAUA
B4: Eterna 1615 (Same State - Theophylline A) (ssRNA)
RNA: UGCACCAGUGAUGUUGGUCGGCACCGAGAUACCAGCUGAUCUCUUAGCCCUUGGCAGCUCUUUAUUCGCGUUAUCAGUUUCUUCG
B5: Eterna 7626312 (Exclusion - Theophylline A) (ssRNA)
RNA: AGAUGCCACUGUGGAUAGCACGAUGCCGAUACCAGCUAGGAAACUAGCCCUUGGCAGCGGUACAUGAGGAUCACCCAUGUAUCCU
B6: Eterna 5954774 (Same State NG 2) (ssRNA)
RNA: GUAGCAUACCGAGGAUAUUCAUAUAAUACAUGAGGAUCACCCAUGUUAUAUAGGCGAAAGCCUUGGGAGAAGGCGGAAUGCUAC
B7: Eterna 7702469 (Exclusion - Arginine B) (ssRNA)
RNA: GUUACGCAUGGAAGGAGCGCGAAAAUUUAUAGUGAGUGAUGUUCACAAAUAAGAAUAAUAACGCAGGUAGGUCGCCAUGUGUAAC
B8: Eterna 7761084 (Exclusion - FMN A) (ssRNA)
RNA: CGAGUGAUGUUCGUUCGUAUAUUUGGGUGACAGGAUAUGCGGAAACGCAGAAGGGUCGCCUUCGGGUUACCCGAAUUGGCGUUUU
B9: Eterna 7755342 (Exclusion - FMN A) (ssRNA)
RNA: AAGUGUCAUUAGACACACCGAUGUAUAAACUAGGAUAUGCUGAUAAGCAGAAGGAGUGAUGUUCCUUUCAUCAUCGGAAUUAAAU
B10: Eterna 7721560 (Exclusion - FMN A) (ssRNA)
RNA: CGAGUGAUGUUCGUUUUAAAAUUUUUUUGACAGGAUAUGCGGAAACGCAGAAGGGUCACCUUUGAGUUAAAAGAAAUUAAAUUUU
B11: Eterna 7646225 (Same State - Tryptophan A) (ssRNA)
RNA: AAUAACAUGAGGAUCACCCAUGUAAGUAAACGAGGACCGGUACGGCCGCCACUCGAAUAAAUAAAGUACCGGUAAGAUCCAUAGA
B12: Eterna 7696143 (Exclusion - Theophylline B) (ssRNA)
RNA: UGAUACCAGACUGAUACCAGCCAGUGAUGUUGGCUAAUCCAAGAAGGAGUCAAAGACUCCGGCCCUUGGCAGCAGUCUGGUAUCU
B13: Eterna 10494 (Sensor v3, turn-off variant 2) (ssRNA)
RNA: AGUACUAACACGAAAGUGUUAGUCCAAUAAGCUUGUGAAACAUGAGGAUCACCCAUGUCCUCAUAAGCUCGUCUUAU
B14: Eterna 7730299 (Same State - Arginine B) (ssRNA)
RNA: UGUAUGGACUGAAGGAGCGGGUAAAUAACCUGAGGAUCACCCAGGUAAAAGGCGAAAGCCACCCAGGUAGGUCGCAGUCCAUACU
B15: Eterna 7687669 (Same State - Tryptophan B) (ssRNA)
RNA: UUUAUUAAGACGGCCGCCACUGAUUCAUAGUGAUGUUAUGAUAUAAUCUUAGUGAUAUUUAUAAACAGGACCGGGUCAAUUAUUA
B16: Eterna 6382764 (Same State NG 3) (ssRNA)
RNA: GGACGUCACAUUAACAUGAGGAUCACCCAUGUGAAAACACAUGAGGAUAUGGAUCCUAAUUGGAUCCAGAAGGCAUGGACGUCC
B17: Eterna 6437027 (Inverted Exclusion NG 3) (ssRNA)
RNA: AUACAUGAGGAUCACCCAUGUUACUGGGUCUAUAUAGAACGUAGAAGGAUGUUUAUACACAUAACAUAGGAUAUACAAUAUUGU
B18: Eterna 6430181 (Small Loop Exclusion NG 3) (ssRNA)
RNA: UAUAGCCCUAGUUCGAGUGUCUAGGAGGAUAUACAGAGGCAGCCAAAGACAUGAGGAUCACCCAUGUAGAAGGCCUAGACGGUA
B19: Eterna 6071251 (Exclusion 3) (ssRNA)
RNA: GCACUGACAGGAUAUACAUGAGGAUCACCCAUGUGACCCUUACAGUACUCGCGUACUGGUAGAAGGGUCUGUGC
B20: Eterna 7694710 (Exclusion - FMN B) (ssRNA)
RNA: GGAUAGGACAGAGGAUAUGGACAGUCUACAAAGUAGGCUGAAAAUCCUUGAAUGGAAGUGAUGUUUCUAGAAGGCUGUCCUAUCG
B21: Eterna 6436150 (Inverted Small Loop Exclusion NG 3) (ssRNA)
RNA: AACCGCGACCGGCCUGGCACGCCGAGAAGGGUACGUGACCUGCUUUACAUGAGGAUCACCCAUGUACAGGAUAUCGGAUAGCCG
B22: Eterna 6454073 (Inverted Small Loop Exclusion NG 3) (ssRNA)
RNA: CUGUGACGGUGCGCAAGUGGACGUAGAAGGGUCACAUGAGGAUCACCCAUGUGGGCCUGCUAGUGACAGGAUAUACGUUCGUGC
B23: Eterna 7721239 (Exclusion - Theophylline B) (ssRNA)
RNA: GGAAUAACCUGGGAUACCAGUCGGAGGACUAGGGAUCGGAGUGAUGUUCUGGGAUGUUUCGGCCCUUGGCAGCUCUGGUUUUCCG
B24: Eterna 7685149 (Same State - Theophylline B) (ssRNA)
RNA: AAGUGUUCUAGUGAUACCAGACAAUUUUAUUUUUUCUUUUUUGCUAAGUGAUGUUUAGCAGUCCCUUGGCAGCACUAUUUCACUA
B25: Eterna 7751925 (Exclusion - Tryptophan B) (ssRNA)
RNA: GGUAGCAUGGCGGCCGCCACUAAGAGAGUGAUGUUCUCUUAGUUUUUUGAUGUGUUAUCAAUUCUUAGGACCGGGCCAUGCUACC
B26: Eterna 7692279 (Exclusion - Arginine B) (ssRNA)
RNA: AUUUUUUACAGAAGGAGCGUGUUUUAAUAAUCAUGGUGCUUAGCGAGUGAUGUUCGCUUUACACAGGUAGGUCGCUGUUUAUUUA
B27: Eterna 7710066 (Exclusion - Tryptophan A) (ssRNA)
RNA: AGCUGGGAUCCUCAGCGUCAAAGACGCAGUCGAGGACCGGUACGGCCGCCACUCGACACGAGGAUCACCCGUGUCAUUCCCAGCA
B28: Eterna 7702594 (Exclusion - Arginine B) (ssRNA)
RNA: GUUACGCAUGGAAGGAGCGCACUCCGAUUGAUCGACACAGUGAUGUUGUGGUUCGUUCGAAUGCAGGUAGGUCGCCAUGUGUAAC
B29: Eterna 5958897 (Exclusion NG 2) (ssRNA)
RNA: AGCUGUGGCCGAGGAUAUCUAUCCCAAAUAACCGAAAUAUAAUCGGACAUGAGGAUCACCCAUGUAGAGAAGGCGGUCUCAGCA
B30: Eterna 7758370 (Same State - Tryptophan B) (ssRNA)
RNA: UGUCAUUGGUCGGCCGCCACUUCAUAAAGAGUGAUGUUCUUAAAGACGGAUCGAAAGAUCUGUCGAAGGACCGGGACCGAUGACU
B31: Eterna 7730249 (Same State - Arginine B) (ssRNA)
RNA: UGUAUGGACUGAAGGAGCGCCUCAAAAUAGCAUGAGGAUCACCCAUGCAAGGCGAAAGCCGGGCAGGUAGGUCGCAGUCCAUACU
B32: Eterna 6084833 (Exclusion 5) (ssRNA)
RNA: UCAUGCUAAGGAUAUGACGUCGGCUACAUGAGGAUCACCCAUGUGGGUUCGUUAUGGCCAUUAGAAGGUAGCGAUU
B33: Eterna 6093766 (Exclusion NG 2) (ssRNA)
RNA: UGUCGGAGCAGAGGAUAUAUACAUGAGGAUCACCCAUGUAAAUGAAUGAGCUGGAAACAGCAAGUAUAGAAGGCUGCUCCGACA
B34: Eterna 7727764 (Exclusion - Tryptophan B) (ssRNA)
RNA: AAUAAACAGUCGGCCGCCACUUCAAUAGACUUAUUAUUGAAUGGUGUAGUUCUUCAGUGAUGUUGAAGGACCGGGACUUUCGCGC
B35: Eterna 6416899 (Inverted Same State NG 1) (ssRNA)
RNA: CACAAAUGGCAGAAGGGACGGACGAUAGUGUAGUCAGGAUAUGCAAAUAGGUAUGGACAUGAGGAUCACCCAUGUCCGUCCUUU
B36: Eterna 7740495 (Exclusion - Theophylline A) (ssRNA)
RNA: UCCUGCAAUCGUCCACGAAAGUGGAUCGAUACCAGAGUCGAAAGACUCCCUUGGCAGCGAGUGAUGUUCGAAGCAGGUAAAUAAA
B37: Eterna 7691982 (Same State - Arginine B) (ssRNA)
RNA: UGACUGGACUGAAGGAGCGAGCGAGACAAAGUCUCGAAAAUUCAGUGAUGUUGAAAUAUAACUCAGGUAGGUCGCAGUCUAGUCU
B38: Eterna 7700638 (Same State - FMN B) (ssRNA)
RNA: ACCUAGUACGUAGGAUAUCGAACAUCAUUUAGUGAGAUCGAGUGAUGUUCGAUCACGUCUUCAGUUCGAGAAGGACGUACUAGGA
B39: Eterna 7727640 (Exclusion - Tryptophan A) (ssRNA)
RNA: GGCCUGGUCGCCUAGUGAUUGUCGGUAGGACGAGGACCGGUACGGCCGCCACUCGGCUUACCCAGUGAUGUUGGGUAUCCGUGGC
B40: Eterna 7675404 (Same State - Tryptophan A) (ssRNA)
RNA: UGGCGAGUGAUGUUCGUUGUUGUAGUGUGUCGAGGACCGGUACGGCCGCCACUCGAGUUGGUUGUUGUUGUUGCUGUUGUUGCUG
B41: Eterna 7716457 (Exclusion - Theophylline B) (ssRNA)
RNA: CGUUUAUAGCAGGAUACCAGUACCCAUUAUGUACGUUUAUAGUAGAGUGAUGUUCUAAAGUACCCUUGGCAGCUUCCCGUGACCC

Molecular target: MS2 coat protein, dlFG mutant (Escherichia phage MS2, UniProt P03612, del68-81insG)
Assay: 4 mM Mg2+; no ligand; RNA-MaP array; 100 mM Tris-HCl pH 7.5, 80 mM KCl, 4 mM MgCl2, 0.1 mg/mL BSA, 1 mM DTT, 0.01 mg/mL yeast tRNA, 0.01% Tween-20; protein 1.5 nM to 3 uM; 37 C (Table S3)
Settings: chain copies: 2; label: tethered by stalled RNA polymerase

Binder	Kd
B1	> 3000 nM
B2	> 3000 nM
B3	28.4 nM
B4	> 3000 nM
B5	13.2 nM
B6	16.3 nM
B7	> 3000 nM
B8	> 3000 nM
B9	> 3000 nM
B10	> 3000 nM
B11	21.3 nM
B12	> 3000 nM
B13	15.2 nM
B14	10.9 nM
B15	> 3000 nM
B16	27.8 nM
B17	33.3 nM
B18	13.6 nM
B19	35.4 nM
B20	> 3000 nM
B21	5.68 nM

Binder	Kd
B22	19.3 nM
B23	> 3000 nM
B24	> 3000 nM
B25	> 3000 nM
B26	> 3000 nM
B27	379 nM
B28	> 3000 nM
B29	28.4 nM
B30	> 3000 nM
B31	12.6 nM
B32	19.6 nM
B33	14.9 nM
B34	> 3000 nM
B35	15.2 nM
B36	> 3000 nM
B37	> 3000 nM
B38	> 3000 nM
B39	> 3000 nM
B40	> 3000 nM
B41	> 3000 nM
